What is called IC50 is the concentration needed to halve the response being measured. Broadly, the EC50 is the concentration at which the effect is half-maximal.

These results are taken from patent US20140120095A1 (Boehringer Ingelheim, published 2014).

Where a chain is given by its changes, count along the chain named.

In experiment [1] the target is T1, human DLL4, full length, overexpressed on cells (human, UniProt Q9NR61 27-685). Kind of experiment: cell-based or functional assay.
Experiment [2] deals with T1, human DLL4, full length, overexpressed …. The experiment can be described thus: FMAT, hNotch1-Fc on CHO-hDLL4, -HSA.
Experiment [3] deals with T2, mouse DLL4, full length, overexpressed on CHO cells (mouse, UniProt Q9JI71 27-686).
T2 construct: whole, on cells; also called mDLL4; CHO-mDLL4
The experiment can be described thus: FMAT, hNotch1-Fc on CHO-mDLL4, -HSA.
Target sequence in this assay (Q9JI71 27-686): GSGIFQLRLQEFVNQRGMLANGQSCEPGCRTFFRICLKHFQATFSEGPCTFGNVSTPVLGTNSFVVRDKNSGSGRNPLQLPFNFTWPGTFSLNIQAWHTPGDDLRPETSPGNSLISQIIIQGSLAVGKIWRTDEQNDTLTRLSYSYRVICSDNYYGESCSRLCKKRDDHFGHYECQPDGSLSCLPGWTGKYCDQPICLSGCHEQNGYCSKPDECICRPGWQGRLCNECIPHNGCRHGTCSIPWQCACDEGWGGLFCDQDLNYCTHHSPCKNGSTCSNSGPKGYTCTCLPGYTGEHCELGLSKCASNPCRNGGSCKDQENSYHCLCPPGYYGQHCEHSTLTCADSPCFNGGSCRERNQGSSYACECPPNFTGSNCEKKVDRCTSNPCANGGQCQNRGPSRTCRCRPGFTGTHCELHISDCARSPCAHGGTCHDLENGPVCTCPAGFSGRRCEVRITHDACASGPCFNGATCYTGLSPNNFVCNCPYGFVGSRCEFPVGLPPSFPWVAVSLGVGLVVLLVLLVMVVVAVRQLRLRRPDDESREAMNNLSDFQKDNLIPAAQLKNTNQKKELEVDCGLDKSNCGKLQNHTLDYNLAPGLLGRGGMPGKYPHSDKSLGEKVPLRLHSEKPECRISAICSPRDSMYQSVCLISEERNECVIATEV

Experiment [4] deals with T1, human DLL4, full length, overexpressed …. The experiment can be described thus: FMAT, hNotch1-Fc on CHO-hDLL4, +25 uM HSA.
Experiment [5] concerns the target T2, mouse DLL4, full length, overexpressed …. Kind of experiment: FMAT, hNotch1-Fc on CHO-mDLL4, +25 uM HSA.
Target sequence in this assay (Q9JI71 27-686): as above
The target of experiment [6] is T3, recombinant human DLL4 (human, UniProt Q9NR61 25-522).
T3 construct: also called rhDLL4; hDLL4
Kind of experiment: binding ELISA, coated rhDLL4. As to the method: (§1) In order to determine cross-reactivity to mouse DII4 a binding ELISA is performed. […] Wells are blocked with a casein solution (1% in PBS). VHHs are applied as dilution series and binding is detected using a mouse anti-myc (Roche) and an anti-mouse-AP conjugate (Sigma, St Louis, Mo., USA) (FIG. 7 A-H). As reference, binding to human DII4 is measured.
For orientation: An ELISA detects its analyte on a solid surface through an enzyme-linked reagent.

Experiment [7] has as its target T3, recombinant human DLL4. Kind of experiment: hDLL4 ELISA screen, periplasmic extract.
Experiment [8] has as its target T4, human DLL4 overexpressed on cells (human, UniProt Q9NR61 27-685).
T4 construct: full length human DLL4 on CHO or HEK293 cells; also called CHO-hDLL4; CHO-hDII4
Kind of experiment: competitive FMAT, hNotch1-Fc on CHO-hDLL4.

In experiment [9] the target is T3, recombinant human DLL4. Kind of experiment: competition AlphaScreen, biot-hDLL4/hNotch1-Fc. As to the method: In brief, 1 nM biotinylated human DII4 is captured on streptavidin-coated donor beads (20 μg/mL), while 0.4 nM of the receptor human Notch1 (as a Fc fusion protein) is captured on anti-human Fc VHH-coated acceptor beads (20 μg/mL). Both loaded beads are incubated together with a dilution range of the competing VHH (FIG. 4 A-E).
For orientation: In Alpha technology, singlet oxygen from a donor bead excites a nearby acceptor bead.

Experiment [10] concerns the target T3, recombinant human DLL4. Kind of experiment: competition ELISA, biot-hDLL4 to coated hNotch1-Fc. An excerpt:
Residual binding of biotinylated human DII4 is detected using horseradish peroxidase (HRP) conjugated extravidin (Sigma, St. Louis, Mo., USA) (FIG. 3 A-C). Human DII4 is biotinylated as described above.

In experiment [11] the target is T5, recombinant mouse DLL4 (mouse, UniProt Q9JI71 27-532).
T5 construct: extracellular domain; also called rmDLL4; mDLL4
T5 sequence (Q9JI71 27-532): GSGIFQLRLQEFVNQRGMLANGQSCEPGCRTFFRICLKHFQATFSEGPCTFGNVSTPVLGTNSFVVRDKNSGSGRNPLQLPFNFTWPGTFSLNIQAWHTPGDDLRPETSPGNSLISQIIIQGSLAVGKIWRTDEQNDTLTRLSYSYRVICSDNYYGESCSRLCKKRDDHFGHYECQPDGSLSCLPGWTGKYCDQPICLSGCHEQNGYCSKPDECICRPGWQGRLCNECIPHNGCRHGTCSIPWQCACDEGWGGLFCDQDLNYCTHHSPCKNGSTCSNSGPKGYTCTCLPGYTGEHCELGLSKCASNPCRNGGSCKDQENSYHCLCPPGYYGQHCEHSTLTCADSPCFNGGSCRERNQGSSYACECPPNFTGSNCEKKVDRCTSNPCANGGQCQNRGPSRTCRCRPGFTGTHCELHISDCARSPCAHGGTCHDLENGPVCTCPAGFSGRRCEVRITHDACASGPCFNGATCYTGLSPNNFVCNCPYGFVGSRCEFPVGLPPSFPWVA
The experiment can be described thus: binding ELISA on coated recombinant mouse DLL4, OD 405 nm. As to the method: as §1

In experiment [12] the target is T6, human DLL1 (human, UniProt O00548 18-545, limits assumed).
T6 construct: also called hDLL1
T6 sequence (looked up): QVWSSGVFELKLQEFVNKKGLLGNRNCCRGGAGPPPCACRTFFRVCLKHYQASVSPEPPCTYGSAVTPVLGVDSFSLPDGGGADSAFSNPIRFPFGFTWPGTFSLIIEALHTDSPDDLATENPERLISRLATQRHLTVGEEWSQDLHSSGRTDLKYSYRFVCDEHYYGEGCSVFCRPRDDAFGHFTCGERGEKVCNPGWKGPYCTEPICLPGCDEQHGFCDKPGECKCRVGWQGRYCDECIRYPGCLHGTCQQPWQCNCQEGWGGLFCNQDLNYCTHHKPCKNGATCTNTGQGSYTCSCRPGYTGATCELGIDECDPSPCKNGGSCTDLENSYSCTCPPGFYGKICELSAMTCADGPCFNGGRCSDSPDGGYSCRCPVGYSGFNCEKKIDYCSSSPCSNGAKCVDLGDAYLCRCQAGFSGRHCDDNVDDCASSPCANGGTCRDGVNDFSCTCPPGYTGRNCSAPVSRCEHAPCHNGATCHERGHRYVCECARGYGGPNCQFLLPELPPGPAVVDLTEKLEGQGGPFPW
Kind of experiment: binding ELISA on coated recombinant human DLL1, OD 405 nm. The procedure:
(§2) Absence of binding to homologous ligands human DLL1 and human Jagged-1 is assessed via solid phase binding assay (ELISA). In brief, human DLL1 (Alexis, San Diego, Calif., USA) and human Jagged-1 (Alexis, San Diego, Calif., USA) are coated overnight at 4° C. at 1 μg/mL in a 96-well MaxiSorp plate (Nunc, Wiesbaden, Germany). Wells are blocked with a casein solution (1% in PBS). VHHs are applied as dilution series and binding is detected using a mouse anti-myc (Roche) and an anti-mouse-AP conjugate (Sigma, St. Louis, Mo., USA).

Experiment [13] concerns the target T7, human Jagged-1 (human, UniProt P78504 34-1067, limits assumed).
T7 construct: also called hJagged-1; hJAG1
The experiment can be described thus: binding ELISA on coated recombinant human Jagged-1, OD 405 nm. The procedure: as §2

The target of experiment [14] is T1, human DLL4, full length, overexpressed …. Kind of experiment: FMAT, hNotch1-Fc on CHO-hDLL4, -HSA. The source holds these as a separate data set.
The target of experiment [15] is T2, mouse DLL4, full length, overexpressed …. The experiment can be described thus: FMAT, hNotch1-Fc on CHO-mDLL4, -HSA. This is another data set of the same source.
The target in experiment [16] is T8, recombinant human VEGF165 (human, UniProt P15692-4 27-191, biotinylated in the competition assays).
T8 construct: Bought protein; also called hVEGF165; rhVEGF165
T8 sequence (P15692 other isoform, or with tags, fused parts or gaps): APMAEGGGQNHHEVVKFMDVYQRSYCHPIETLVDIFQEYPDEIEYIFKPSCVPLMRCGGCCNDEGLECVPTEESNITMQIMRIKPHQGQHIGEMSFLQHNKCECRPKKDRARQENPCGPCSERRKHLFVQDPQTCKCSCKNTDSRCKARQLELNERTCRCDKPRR
Kind of experiment: AlphaScreen, hVEGF165/hVEGFR1-Fc competition, -HSA.

Experiment [17] addresses T8, recombinant human VEGF165. Kind of experiment: AlphaScreen, hVEGF165/hVEGFR2-Fc competition, -HSA.

B1: DLLBII129B05 (VHH, not shown: small tags and cut ends)
VHH: EVQLVESGGGLVQAGGSLRLSCAASGRTFSSYAMAWYRQAPGKEREYVAAIRWSGGTAYYADSVQGRFTISRDNAKNTVYLQMNSLKPEDTAVYYCANRAPDTRLAPYEYDHWGQGTQVTVSS
As to B1, the “IC50, DLL4 mediated reporter assay, +HSA” value in experiment [1] was found to be 88 nM. The “% inh” value in experiment [2] was determined as 90%; in experiment [3], 100%; in experiment [4], 90%; in experiment [5], 100%. Moreover, the IC50 in [2] was 3.2 nM; in [3], 3 nM; in experiment [4], 4.3 nM; in [5], 3.7 nM.

B2: DLLBII6B11 (VHH)
VHH: EVQLVESEGGLVQAGGSLRLSCAASGSTFSSYAMGWYRQAPGKQRELVAVISNGGITNYPNSVKGRFTISRDNAKNTVYLQMNSLKPEDTAVYYCFYSGSYYYPTDVHEYDYWGQGTQVTVSS
notes: also called DLLBII06B1
With B2, the 50% effective concentration (EC50) in experiment [6] turned out to be 1.4 nM. Also, the “% inh” value in [7] came out at 98%. Moreover, the IC50 in [8] came out at 8.9 nM; in experiment [9], 0.3 nM; in experiment [10] it was 1.5 nM. In addition, the binding result in [11], in experiment [12] and in [13] was “no binding (tested: 2.5e-7 M)” each time.

B3: DLLBII07A02 (VHH)
VHH: B2 VHH with E8G, S30N, L47W, V50A, I51F, N53T, I56S, P60A, N61D, H108F
For the molecule B3, the EC50 in [6] turned out to be 1.4 nM. Further, in [9], the IC50 stood at 0.4 nM. The binding result in experiment [11], in experiment [12] and in experiment [13] was “no binding (tested: 2.5e-7 M)” throughout.

B4: A1 (bispecific antibody)
chain: VQLVESGGGLVQPGGSLRLSCAASGRTFSSYSMGWFRQAPGKEREFVVAISKGGYKYDAVSLEGRFTISRDNAKNTVYLQINSLRPEDTAVYYCASSRAYGSSRLRLADTYEYWGQGTLVTVSSGGGGSGGGGSGGGGCGGGGSGGGGSGGGGSGGGGSEVQLVESGGGLVQPGGSLRLSCAASGRTFSSYAMAWYRQAPGKEREYVAAIRWSGGTAYYADSVKGRFTISRDNAKNTVYLQMNSLRPEDTAVYYCANRAPDTRLAPYEYDHWGQGTLVTVSS
modifications: PEGylated at the Cys at position 15 of the 35 Gly-Ser linker
notes: VEGFBII038 (N-terminal E missing) - 35GS(Cys15) - DLLBII018
As to B4, the “% inh” value in experiment [14] was 102%; in experiment [15], 100%; in [16], 80%; in [17], 100%. In addition, the IC50 in [14] came to 6.7 nM; in experiment [15], 3.4 nM; in [16], 0.1 nM; in [17], 0.07 nM.

B5: A3 (bispecific antibody)
chain: VQLVESGGGLVQPGGSLRLSCAASGRTFSSYSMGWFRQAPGKEREFVVAISKGGYKYDAVSLEGRFTISRDNAKNTVYLQINSLRPEDTAVYYCASSRAYGSSRLRLADTYEYWGQGTLVTVSSGGGGSGGGGSGGGGCGGGGSGGGGSGGGGSGGGGSEVQLVESGGGLVQPGGSLRLSCAASGIRFISMAWYRQAPGKQRELVARISSGGTTAYADSVKGRFTISRDNSKNTVYLQMNSLRAEDTAVYYCNTFSSRPNPWGQGTLVTVSSGGGGSGGGGSGGGGSGGGGSGGGGSGGGGSGGGGSEVQLVESGGGLVQPGGSLRLSCAASGRTFSSYAMAWYRQAPGKEREYVAAIRWSGGTAYYADSVKGRFTISRDNAKNTVYLQMNSLRPEDTAVYYCANRAPDTRLAPYEYDHWGQGTLVTVSS
modifications: PEGylated at the Cys at position 15 of the 35 Gly-Ser linker
notes: VEGFBII038 - 35GS(Cys15) - VEGFBII032 - 35GS - DLLBII018
As to B5, the “% inh” value in experiment [14] is 97%; in [15] it was 95%; in [16], 97%; in experiment [17] it was 100%. Moreover, the concentration for half-maximal inhibition (IC50) worked out at 16.1 nM in experiment [14], 7.9 nM in experiment [15], 0.02 nM in experiment [16] and 0.01 nM in experiment [17].

B6: DLLBII05B11 (VHH)
VHH: EVQLVESGGGLVQPGGSLRLSCAISGFTLDLHVIGWLRQAPGKEREWVSCISSSDGSTYYADSVKGRFTISRDNAKNTVYLQMNSLKPEDTAVYYCAAPWDSWYCGIGNDYDYWGQGTQVTVSS
notes: also called DLLBII5B11
In the case of B6, the half-maximal effective concentration (EC50) in [6] came to 1.8 nM. Further, the “% inh” value in [7] turned out to be 98%. Further, in experiment [9], the IC50 was found to be 0.7 nM. Besides, the binding result in experiment [11], in experiment [12] and in [13] was “no binding (tested: 2.5e-7 M)” in each case.

B7: DLLBII07B05 (VHH)
VHH: EVQLVESGGGLVQAGGSLRLSCAASGFALDYYAVGWFRQAPGKEREGVSCISSRGGSTFYADSVKGRFTTSRNNAKNTVYLQMNSLKPEDTAVYYCAAHPLQNCCGGSAYASPEAVYEYWGQGTQVTVSS
notes: also called DLLBII7B05
Consider B7, for which, in experiment [6], the EC50 came to 7.2 nM. For the same molecule, in experiment [7], the “% inh” value was found to be 84%. In experiment [9], the IC50 is 1.1 nM. Also, the binding result in experiment [11], in experiment [12] and in experiment [13] was “no binding (tested: 2.5e-7 M)” throughout.

B8: DLLBII08A09 (VHH)
VHH: EVQLVESGGGLVQPGGSLRLSCAASGFTLDYYNIGWFRQAPGKEREWVSCINSSDGSTYYADSVKGRFTISRDNAKNTVYLQMNSLKPEDTAVYYCAAPFAYYSNLCGVNGYDYWGQGTQVTVSS
notes: also called DLLBII8A09
For the molecule B8, the 50% effective concentration (EC50) in [6] was determined as 0.9 nM. Further, the “% inh” value in experiment [7] was 96%. For the same molecule, the half-maximal inhibitory concentration (IC50) in [8] came out at 5.5 nM; in experiment [9], 0.4 nM. In addition, the binding result in experiment [11], in [12] and in experiment [13] was “no binding (tested: 2.5e-7 M)” in each case.
